In the supplement of paper PMC10126150:
± gives the standard deviation of the averaged measurements.

System: ATP
Assay: switch fluorescence ratio, 500 uM ATP over buffer (Cy3 cluster intensity, sum of 5 cycles each) (fold (ratio)); higher = stronger signal-on switching upon ATP binding; sequences stand for … in TCGTCGGCAGCGTCAGATGTGTATAAGAGACAGTTTTTTTTTTTTTTTTTTTTTTTTT…TC
Details: aptamer strand: ATP DNA aptamer (quencher-CACCTGGGGGAGTATTGCGGAGGAAGG + anchor), 100 nM annealed; ATP concentration: 500 uM
Outline: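 Cy3-labelled switching-strand clusters on a modified Illumina MiSeq flow-cell were annealed to 100 nM quencher-labelled ATP aptamer, imaged in selection buffer, then imaged after 15 min with 500 uM ATP at 22 °C. Five buffer/ATP cycles ran, with NaOH stripping and re-annealing between them. The fluorescence ratio is summed target-cycle over summed buffer-cycle Cy3 intensity per cluster, averaged per switch-domain sequence. Clusters outside 100-1000 RFU were excluded.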
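Also: ATP exposure 15 min at 22 °C before imaging.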

Sequence	switch fluorescence ratio
TTGTGTTTGG	0.992 ± 0.014
TTGTTAACTT	0.985 ± 0.017
TTGTTAGATG	1.011 ± 0.0066
TTGTTAGGAA	1.01 ± 0.02
TTGTTAGTT	1.02 ± 0.03
TTGTTATCCG	0.964 ± 0.048
TTGTTATGAT	1.01 ± 0.018
TTGTTATTCG	1.01 ± 0.087
TTGTTCCAGC	0.985 ± 0.047
TTGTTCCCGT	0.9839 ± 0.0013
TTGTTCCTTG	1.01 ± 0.022
TTGTTCGCCT	1.02 ± 0.011
TTGTTCTCGC	1.02 ± 0.048
TTGTTGAAAT	1.03 ± 0.074
TTGTTGAGGA	1.01 ± 0.028
TTGTTGAGGC	1.06 ± 0.1
TTGTTGATTA	0.9935 ± 0.0089
TTGTTGCAAG	1.013 ± 0.0079
TTGTTGCTTG	1.02 ± 0.028
TTGTTGGCGG	0.994 ± 0.025
TTGTTGGGCA	1.01 ± 0.032
TTGTTGGTAG	1.03 ± 0.031
TTGTTGTGGT	0.987 ± 0.032
TTGTTTAATT	0.979 ± 0.022
TTGTTTATAT	0.9853 ± 0.0053
TTGTTTATTT	1.02 ± 0.032

Sequence	switch fluorescence ratio
TTGTTTCATG	1.01 ± 0.025
TTGTTTCGGG	0.978 ± 0.018
TTGTTTGCAA	1.52 ± 0.74
TTGTTTGGGG	0.998 ± 0.026
TTGTTTGTGA	0.992 ± 0.011
TTGTTTGTTG	0.994 ± 0.019
TTGTTTTAC	1.05 ± 0.067
TTGTTTTACT	1.027 ± 0.0056
TTGTTTTAGG	0.987 ± 0.047
TTGTTTTCTG	1.02 ± 0.047
TTGTTTTGAA	1.006 ± 0.0053
TTGTTTTGTT	1.04 ± 0.1
TTGTTTTTAC	1.07 ± 0.052
TTGTTTTTGA	1.05 ± 0.067
TTTAAAACAG	1.018 ± 0.0079
TTTAAAAGAA	0.995 ± 0.039
TTTAAAATAT	0.998 ± 0.046
TTTAAAGAGG	0.9813 ± 0.0042
TTTAAAGATC	1 ± 0.021
TTTAAATAT	1.03 ± 0.086
TTTAAATATG	0.9942 ± 0.0073
TTTAAATCTC	0.963 ± 0.014
TTTAAATTAA	0.9938 ± 0.0026
TTTAACAGTA	1.04 ± 0.044
TTTAACATAT	1.022 ± 0.004
TTTAACGATA	1.07 ± 0.015

Sequence	switch fluorescence ratio
TTTAACGATC	1.01 ± 0.035
TTTAACGGTG	1.02 ± 0.027
TTTAACTGG	1.03 ± 0.036
TTTAAGATTT	1.01 ± 0.03
TTTAAGCGTT	1.054 ± 0.0066
TTTAAGCTAA	1.13 ± 0.23
TTTAAGCTGT	0.978 ± 0.049
TTTAAGGATA	0.9872 ± 0.0055
TTTAAGGCCT	1 ± 0.021
TTTAAGGCTC	0.994 ± 0.032
TTTAAGGGG	1.02 ± 0.051
TTTAAGGGGT	0.991 ± 0.051
TTTAAGTAGT	1.01 ± 0.028
TTTAAGTTTC	1 ± 0.025
TTTAATACGC	1.38 ± 0.26
TTTAATATTA	0.986 ± 0.015
TTTAATCAAA	0.988 ± 0.014
TTTAATGGTT	1.02 ± 0.039
TTTAATGTCC	0.976 ± 0.07
TTTAATTGCA	0.988 ± 0.038
TTTAATTGGG	0.983 ± 0.039
TTTAATTTGT	1 ± 0.019
TTTACAAAGT	0.994 ± 0.049
TTTACCCACT	1.46 ± 0.073
TTTACCCCAT	1.05 ± 0.032
TTTACCCTAT	1.06 ± 0.015

Sequence	switch fluorescence ratio
TTTACCTCGA	1.027 ± 0.0069
TTTACGGGGC	1 ± 0.017
TTTACGGTGA	1.02 ± 0.043
TTTACGTCAG	1.013 ± 0.0034
TTTACTAGAT	1.05 ± 0.012
TTTACTATAT	1.04 ± 0.032
TTTACTATGG	0.9984 ± 0.0023
TTTACTTAGT	1.02 ± 0.018
TTTACTTGCG	0.9759 ± 0.0038
TTTACTTTGC	1.48 ± 0.69
TTTACTTTTT	1.01 ± 0.027
TTTAGAAAAC	0.984 ± 0.037
TTTAGAAAAT	1.01 ± 0.0098
TTTAGAAATC	1.08 ± 0.16
TTTAGAAGGC	1.08 ± 0.11
TTTAGAAGGG	0.979 ± 0.051
TTTAGAATGT	0.994 ± 0.019
TTTAGACCAG	1.01 ± 0.059
TTTAGACCCT	1.013 ± 0.0046
TTTAGAGAGC	0.987 ± 0.051
TTTAGAGGAA	0.977 ± 0.032
TTTAGAGTTC	0.997 ± 0.021
TTTAGATTTG	1.024 ± 0.0048
TTTAGCACAG	1.06 ± 0.017
TTTAGCAGCT	0.993 ± 0.014
TTTAGCGACG	1.069 ± 0.0098

Sequence	switch fluorescence ratio
TTTAGCGCGG	1 ± 0.029
TTTAGCTCTG	1.02 ± 0.019
TTTAGCTTAT	0.9798 ± 0.0056
TTTAGGAAAA	1 ± 0.029
TTTAGGACTT	0.994 ± 0.021
TTTAGGCAGG	0.988 ± 0.022
TTTAGGGAAT	1 ± 0.013
TTTAGGGAGG	0.974 ± 0.026
TTTAGGGATA	1.09 ± 0.19
TTTAGGGCGC	1.05 ± 0.044
TTTAGGGGAC	1 ± 0.012
TTTAGGGGGG	1.01 ± 0.099
TTTAGGGTG	1.05 ± 0.061
TTTAGGGTTA	1.01 ± 0.016
TTTAGGTTGC	0.9817 ± 0.0056
TTTAGTATGG	1.02 ± 0.042
TTTAGTATGT	1.013 ± 0.0025
TTTAGTCACT	1.03 ± 0.022
TTTAGTCGGG	1.02 ± 0.046
TTTAGTCTCA	1.017 ± 0.0089
TTTAGTGCGG	0.973 ± 0.033
TTTAGTGTCT	0.983 ± 0.021
TTTAGTGTTG	0.957 ± 0.041
TTTAGTGTTT	1.004 ± 0.007
TTTAGTTGAG	0.971 ± 0.025
TTTAGTTGGT	1 ± 0.08

Sequence	switch fluorescence ratio
TTTAGTTGTA	1.018 ± 0.0077
TTTAGTTTCG	1.02 ± 0.025
TTTATAAGAT	1.01 ± 0.012
TTTATAATTG	1.03 ± 0.028
TTTATAATTT	0.981 ± 0.018
TTTATACCGC	1.13 ± 0.071
TTTATACTCT	1.08 ± 0.026
TTTATAGAGC	1.03 ± 0.054
TTTATAGCGT	0.974 ± 0.038
TTTATAGGTC	0.994 ± 0.038
TTTATATGGC	1.03 ± 0.08
TTTATCACAG	1.014 ± 0.0041
TTTATCAGTG	0.987 ± 0.031
TTTATCCCGA	1.03 ± 0.048
TTTATCCTAG	0.976 ± 0.003
TTTATCGCAG	0.994 ± 0.039
TTTATCGTCT	1.12 ± 0.068
TTTATGAAAA	1.025 ± 0.0066
TTTATGAGAC	1.02 ± 0.065
TTTATGAGG	0.997 ± 0.019
TTTATGAGT	0.987 ± 0.022
TTTATGATCG	0.977 ± 0.039
TTTATGCTGC	1.05 ± 0.038
